Data as given in patent US20190135918A1 (ICHNOS SCIENCES, published 2019).
Changes are numbered by the printed parent chain. Numbers in names are those of the source. Like-named read-outs stand apart in the source and are kept apart here. Blank lines part the entries; values can stand above or below the binder they belong to.

Columns and labels:
[1] = target: T1, soluble extracellular region of human CD38 fused to a 6-His-tag (human, UniProt P28907 43-300); experiment: SPR, antibody captured on protein G, CD38 injected
T1 construct: Expressed with the murine VJ2C leader; also called human CD38 protein; human CD38 antigen

[2] = target: T1, soluble extracellular region of human …; experiment: SPR
[3] = target: T2, soluble extracellular region of cynomolgus monkey CD38 antigen fused to a 6-His-tag (cynomolgus monkey, UniProt Q5VAN0 45-301); experiment: SPR
T2 construct: also called cynomolgus CD38

[4] = target: T3, human CD3 epsilon on cells (human, UniProt P07766 23-207); experiment: FACS staining of HPB-ALL cells, human IgG1 format, graded relative to chimeric OKT3
T3 construct: whole, on cells; On cells it stands in the CD3/TCR complex; also called HPB-ALL cells (human CD3 epsilon positive T cell tumour line); CD3 on human T cells
Procedure: (§1) HPB-ALL cells (DSMZ, Braunschweig, Germany, Cat. No: ACC483) were used as CD3 positive cell line for FACS staining. […] After washing, cells were incubated with a 1/200 dilution of anti-Human Fc-PE (EBioscience, Vienna, Austria) for 45 min on ice. Cells were then washed again and resuspended in 200 ul FACS buffer.

[5] = target: T3, human CD3 epsilon on cells; experiment: as above; remark: listed apart in the source
Procedure: as §1

[6] = target: T4, human CD38 on cells (human, UniProt P28907 1-300); experiment: cell-based or functional assay
[7] = target: T4, human CD38 on cells; experiment: cell-based or functional assay; remark: listed apart in the source

fold improvement of affinity over the first prototype [2]: 2 fold
Kd [3]: 3.2 nM
Kd [1]: 0.5 nM
B2: humanized 9G7 best-fit antibody (antibody, human IgG1, kappa, V domains shown)
VH: QVTLKESGPTLVKPTQTLTLTCTFSGLSLSTSGKGVGWIRQPPGKALEWLAHIWWDDDKRYNPALKSRLTITKDTSKNQVVLTMTNMDPVDTATYYCARIELGRSYVMDYWGQGTLVTVSS
VL: DIQMTQSPSSLSASVGDRVTITCQASQDVITSVAWYQQKPGKAPKLLIYSASYRYTGVPSRFSGSGSGTDFTFTISSLQPEDIATYYCQQHYTIPLTFGQGTKLEIKR
notes: Human IgG1; light chain carries the F36Y back mutation (Kabat); also called 9G7 best-fit F36Y humanized variant

Kd [2]: 1 nM
fold lower binding than the mouse parental antibody [2]: 3 fold
B3: first humanized 9G7 antibody prototype (best-fit approach, post CDR grafting) (antibody, human IgG1, kappa, V domains shown)
VH: B2 VH
VL: B2 VL with Y36F
notes: Human IgG1 isotype; also called first antibody prototype; first humanized prototype

Kd [3]: 1 nM
Kd [1]: 0.4 nM
B4: humanized 9G7 best-framework antibody (antibody, human IgG1, kappa, V domains shown)
VH: EVQLVESGGGLVQPGGSLRLSCAFSGLSLSTSGKGVGWIRQAPGKGLEWLAHIWWDDDKRYNPALKSRLTISKDTSKNTVYLQMNSLRAEDTAVYYCARIELGRSYVMDYWGQGTLVTVSS
VL: B2 VL with Q24R, Y36F, F73L, I83F, L104V
notes: Human IgG1

binding result [5]: binds
B6: VH10/VL4 (antibody, human IgG1, kappa, V domains shown)
VH: EVQLVESGGGLVQPGGSLRLSCAASGYTFTRYTMHWVRQAPGKGLEWIGYINPSRGYTYYADSVKSRATLSTDKSKNTAYLQMNSLRAEDTAVYYCARYYDDHYCLDYWGQGTLVTVSS
VL: DIQLTQSPSSLSASVGDRVTITCRASSSVSYVAWYQQKPGKAPKRWIYDTSKLYSGVPSRFSGSRSGTDYTLTISSLQPEDFATYYCQQWSSNPPTFGQGTKVEIKR
notes: human IgG1; also called humanized OKT3 VH10/VL4 antibody; copies: 2 + 2

binding result [4]: binds
B7: VH5/VL4 (antibody, human IgG1, kappa, V domains shown)
VH: B6 VH with I48V, Y59R, S66G, A68F
VL: B6 VL
notes: human IgG1; also called humanized OKT3 VH5/VL4 antibody; copies: 2 + 2

binding result [5]: binds
B8: VH10/VL8 (antibody, human IgG1, kappa, V domains shown)
VH: B6 VH
VL: B6 VL with R65G
notes: human IgG1; also called humanized OKT3 VH10/VL8 antibody; copies: 2 + 2

binding result [5]: binds
B12: VH6/VL8 (antibody, human IgG1, kappa, V domains shown)
VH: B6 VH with Y59R, S66G, A68F
VL: B6 VL with R65G
notes: human IgG1; also called humanized OKT3 VH6/VL8 antibody; copies: 2 + 2

binding result [4]: binds
B13: VH6/VL5 (antibody, human IgG1, kappa, V domains shown)
VH: B6 VH with Y59R, S66G, A68F
VL: B6 VL with V32M, A33N, R45L, W46L
notes: human IgG1; also called humanized OKT3 VH6/VL5 antibody; copies: 2 + 2

binding result [5]: binds
B14: VH9/VL8 (antibody, human IgG1, kappa, V domains shown)
VH: B6 VH with A68F
VL: B6 VL with R65G
notes: human IgG1; also called humanized OKT3 VH9/VL8 antibody; copies: 2 + 2

binding result [5]: binds
B16: humanized OKT3 VH8/VL4 antibody (antibody, human IgG1, V domains shown)
VH: B6 VH with S66G, A68F
VL: B6 VL
notes: Human IgG1; copies: 2 + 2

Kd [1]: 3.6 nM
B19: humanized HB-7 best-fit antibody (antibody, human IgG1, kappa, V domains shown)
VH: QVQLQESGPGLVKPSETLSLTCTVSGFSLISYGVHWVRQPPGKGLEWLGVIWRGGSTDYNAAFMSRLTISKDNSKNQVSLKLSSVTAADTAVYFCAKTLITTGYAMDYWGQGTLVTVSS
VL: DIQLTQSPSSLSASVGDRVTITCRASEDIYNRLAWYQQKPGKAPKLLISGATSLETGVPSRFSGSGSGKDYTLTISSLQPEDFATYYCQQYWSTPTFGQGTKLEIKR
notes: Human IgG1 format

The remaining lines, values behind:

B1: chimeric HB-7 antibody (antibody, human IgG1, kappa, V domains shown)
VH: KVQLQESGPSLVQPSQRLSITCTVSGFSLISYGVHWVRQSPGKGLEWLGVIWRGGSTDYNAAFMSRLSITKDNSKSQVFFKMNSLQADDTAIYFCAKTLITTGYAMDYWGQGTTVTVSS
VL: DIELTQSPSSFSVSLGDRVTITCKASEDIYNRLAWYQQKPGNAPRLLISGATSLETGVPSRFSGSGSGKDYTLSITSLQTEDVATYYCQQYWSTPTFGGGTKLEIKR
Kd [1]: 2.5 nM

B5: VH5/VL3 (antibody, human IgG1, kappa, V domains shown)
VH: B6 VH with I48V, Y59R, S66G, A68F
VL: B6 VL with R45L, W46L
notes: human IgG1; also called humanized OKT3 VH5/VL3 antibody; copies: 2 + 2
binding result [4]: binds

B9: humanized OKT3 VH11/VL4 antibody (antibody, human IgG1, V domains shown)
VH: B6 VH with S66G, A68F, N84S
VL: B6 VL
notes: Human IgG1; copies: 2 + 2
binding result [5]: binds

B10: VH5/VL6 (antibody, human IgG1, kappa, V domains shown)
VH: B6 VH with I48V, Y59R, S66G, A68F
VL: B6 VL with P95F
notes: human IgG1; also called humanized OKT3 VH5/VL6 antibody; copies: 2 + 2
binding result [4]: binds

B11: VH6/VL6 (antibody, human IgG1, kappa, V domains shown)
VH: B6 VH with Y59R, S66G, A68F
VL: B6 VL with P95F
notes: human IgG1; also called humanized OKT3 VH6/VL6 antibody; copies: 2 + 2
binding result [4]: binds

B15: VH7/VL4 (antibody, human IgG1, kappa, V domains shown)
VH: B6 VH with I48V, Y59N, S66G, A68F
VL: B6 VL
notes: human IgG1; also called humanized OKT3 VH7/VL4 antibody; copies: 2 + 2
binding result [5]: binds

B17: VH6/VL4 (antibody, human IgG1, kappa, V domains shown)
VH: B6 VH with Y59R, S66G, A68F
VL: B6 VL
notes: human IgG1; also called humanized OKT3 VH6/VL4 antibody; copies: 2 + 2
binding result [4]: binds

B18: BEAT CD38-9G7Mouse/CD3 (bispecific antibody, human IgG1, kappa, L234A L235A)
heavy: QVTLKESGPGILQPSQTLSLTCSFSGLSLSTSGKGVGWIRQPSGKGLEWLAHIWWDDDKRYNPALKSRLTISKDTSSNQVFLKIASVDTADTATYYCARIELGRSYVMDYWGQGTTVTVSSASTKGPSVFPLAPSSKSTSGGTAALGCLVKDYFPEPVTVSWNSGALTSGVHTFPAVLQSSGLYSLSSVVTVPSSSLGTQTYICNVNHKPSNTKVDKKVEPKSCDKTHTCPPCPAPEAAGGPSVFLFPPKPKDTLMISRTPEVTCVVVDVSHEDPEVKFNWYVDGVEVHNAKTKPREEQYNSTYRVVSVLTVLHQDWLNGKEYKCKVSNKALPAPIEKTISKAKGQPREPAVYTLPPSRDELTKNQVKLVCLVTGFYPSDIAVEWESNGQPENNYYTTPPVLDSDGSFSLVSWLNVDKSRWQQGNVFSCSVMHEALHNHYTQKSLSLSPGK
light: DIVMTQSHKFMSTSVGDRVSISCKASQDVITSVAWFQQKPGQSPKLLIYSASYRYTGVPDRFTGSGSGTDFTFTISSVQAEDLAVYYCQQHYTIPLTFGAGTKLELKRTVAAPSVFIFPPSDEQLKSGTASVVCLLNNFYPREAKVQWKVDNALQSGNSQESVTEQDSKDSTYSLSSTLTLSKADYEKHKVYACEVTHQGLSSPVTKSFNRGEC
chain: EVQLVESGGGLVQPGGSLRLSCAASGYTFTRYTMHWVRQAPGKGLEWIGYINPSRGYTYYADSVKGRFTLSTDKSKNTAYLQMSSLRAEDTAVYYCARYYDDHYCLDYWGQGTLVTVSSGGGGSGGGGSGGGGSDIQLTQSPSSLSASVGDRVTITCRASSSVSYVAWYQQKPGKAPKRWIYDTSKLYSGVPSRFSGSGSGTDYTLTISSLQPEDFATYYCQQWSSNPPTFGQGTKVEIKGGGGTDKTHTCPPCPAPEAAGGPSVFLFPPKPKDTLMISRTPEVTCVVVDVSHEDPEVQFKWYVDGVEVHNAKTKPREEQYNSTFRVVSVLTVLHQDWLNGKEYKCKVSNKALPAPIEKTISKTKGQPREPEVATFPPSREEMTKNQVTLVCLVTGFYPSDIAVEWESSGQPENNYNTDPPLLESDGSFALSSRLRVDKSRWQQGNIFSCSVMHEALHNRFTQKSLSLSPGK
killing assay against Daudi cells, flow cytometry readout, EC50 (pM) [6]: 3.2 pM

B20: BEAT CD38-HB7bestfit/CD3 antibody (bispecific antibody, human IgG1, kappa, L234A L235A)
heavy: QVQLQESGPGLVKPSETLSLTCTVSGFSLISYGVHWVRQPPGKGLEWLGVIWRGGSTDYNAAFMSRLTISKDNSKNQVSLKLSSVTAADTAVYFCAKTLITTGYAMDYWGQGTLVTVSSASTKGPSVFPLAPSSKSTSGGTAALGCLVKDYFPEPVTVSWNSGALTSGVHTFPAVLQSSGLYSLSSVVTVPSSSLGTQTYICNVNHKPSNTKVDKKVEPKSCDKTHTCPPCPAPEAAGGPSVFLFPPKPKDTLMISRTPEVTCVVVDVSHEDPEVKFNWYVDGVEVHNAKTKPREEQYNSTYRVVSVLTVLHQDWLNGKEYKCKVSNKALPAPIEKTISKAKGQPREPAVYTLPPSRDELTKNQVKLVCLVTGFYPSDIAVEWESNGQPENNYYTTPPVLDSDGSFSLVSWLNVDKSRWQQGNVFSCSVMHEALHNHYTQKSLSLSPGK
light: DIQLTQSPSSLSASVGDRVTITCRASEDIYNRLAWYQQKPGKAPKLLISGATSLETGVPSRFSGSGSGKDYTLTISSLQPEDFATYYCQQYWSTPTFGQGTKLEIKRTVAAPSVFIFPPSDEQLKSGTASVVCLLNNFYPREAKVQWKVDNALQSGNSQESVTEQDSKDSTYSLSSTLTLSKADYEKHKVYACEVTHQGLSSPVTKSFNRGEC
chain: EVQLVESGGGLVQPGGSLRLSCAASGYTFTRYTMHWVRQAPGKGLEWIGYINPSRGYTYYADSVKGRFTLSTDKSKNTAYLQMSSLRAEDTAVYYCARYYDDHYCLDYWGQGTLVTVSSGGGGSGGGGSGGGGSGGGASDIQLTQSPSSLSASVGDRVTITCRASSSVSYVAWYQQKPGKAPKRWIYDTSKLYSGVPSRFSGSGSGTDYTLTISSLQPEDFATYYCQQWSSNPPTFGQGTKVEIKGGGGTDKTHTCPPCPAPEAAGGPSVFLFPPKPKDTLMISRTPEVTCVVVDVSHEDPEVQFKWYVDGVEVHNAKTKPREEQYNSTFRVVSVLTVLHQDWLNGKEYKCKVSNKALPAPIEKTISKTKGQPREPEVATFPPSREEMTKNQVTLVCLVTGFYPSDIAVEWESSGQPENNYNTDPPLLESDGSFALSSRLRVDKSRWQQGNIFSCSVMHEALHNRFTQKSLSLSPGK
notes: Anti-CD38 FAB arm and anti-CD3 epsilon scFv BEAT heavy chain (third chain)
T cell redirected killing of RPMI 8226 myeloma cells, RDL-FACS method, EC50 [7]: 2.2 pM
Kd [1]: 3.2 nM

B21: BEAT CD38-HB7bestfit/CD3(SP34) antibody (bispecific antibody)
heavy: QVQLQESGPGLVKPSETLSLTCTVSGFSLISYGVHWVRQPPGKGLEWLGVIWRGGSTDYNAAFMSRLTISKDNSKNQVSLKLSSVTAADTAVYFCAKTLITTGYAMDYWGQGTLVTVSSASTKGPSVFPLAPSSKSTSGGTAALGCLVKDYFPEPVTVSWNSGALTSGVHTFPAVLQSSGLYSLSSVVTVPSSSLGTQTYICNVNHKPSNTKVDKKVEPKSCDKTHTCPPCPAPEAAGGPSVFLFPPKPKDTLMISRTPEVTCVVVDVSHEDPEVQFKWYVDGVEVHNAKTKPREEQYNSTFRVVSVLTVLHQDWLNGKEYKCKVSNKALPAPIEKTISKTKGQPREPAVYTLPPSREEMTKNQVKLVCLVTGFYPSDIAVEWESSGQPENNYYTTPPMLDSDGSFSLVSWLNVDKSRWQQGNIFSCSVMHEALHNRFTQKSLSLSPGK
light: B20 light
chain: not shown
T cell redirected killing of Daudi cells, RDL-FACS method, EC50 [7]: 1.8 pM
